Data set [1] concerns the target T1, NADPH-dependent 3-quinuclidinone reductase (RrQR) (Rhodotorula mucilaginosa, UniProt B9ZZZ6).
T1 construct: gene rqr; homotetramer; crystal model residues 7-272, residues 1-6 disordered
As to the kind of experiment: X-ray crystal structure, […] Å. In kind it is binding. The note with it: crystals grown at 278 K, CHES pH 10.0, PEG8000; one NADPH per protomer.

The test system of another data set is O=C1CN2CCC1CC2. As to the kind of experiment: purified protein. In kind it is biochemical, Rhodotorula mucilaginosa. The note with it: 350 μM NADPH, 200 mM potassium phosphate pH 7.0, 37°C, substrate as HCl salt.
In data set [2] the target is NADPH-dependent 3-quinuclidinone reductase (RrQR) from Rhodotorula rubra (Rhodotorula rubra). As to the kind of experiment: crystal structure; RrQR in complex with NADPH; crystals grown at 278 K, sitting-drop vapor diffusion, 100 mM CHES (pH 10.0), 30% PEG8000, 3% sucrose; four protomers in the asymmetric unit; 2.2 Å.

Broadly, the Km is the substrate concentration at which the rate is half of its maximum. A word on the Vmax: it is the top rate of the reaction or transport when substrate is in excess. Broadly, the kcat is the maximal rate divided by the concentration of active sites. Usually stoichiometry N stands for the number of molecules, sites or subunits per partner or assembly.

On to `NC(=O)C1=CN([C@@H]2O[C@H](COP(=O)(O)OP(=O)(O)OC[C@H]3O[C@@H](n4cnc5c(N)ncnc54)[C@H](OP(=O)(O)O)[C@@H]3O)[C@@H](O)[C@H]2O)C=CC1` [NADPH], for which the “X-ray crystal structure, 2.2 Å” value in data set [1] was “A clear electron density for NADPH is observed in each protomer”.

In the case of “NADPH-dependent 3-quinuclidinone reductase (RrQR) (Rhodotorula mucilaginosa; N173A)”, in the data set with O=C1CN2CCC1CC2, the Km stood at 100 mM, the Vmax was 11.6 µmol/min/mg and the kcat is 5.62 s⁻¹.

In data set [2], “NADPH-dependent 3-quinuclidinone reductase (RrQR) from Rhodotorula rubra (enzyme)” had a stoichiometry N of 4.
